This note sets out measurements from publication PMC6995525, “Structure of the PUB Domain from Ubiquitin Regulatory X Domain Protein 1 (UBXD1) and Its Interaction with the p97 AAA+ ATPase” (Biomolecules, 2019).

B2: UBXD1-PUB (150–264) (domain or fragment, UniProt Q9BZV1 150-264, looked up)
chain: STDPVAASIMKIYTFNKDQDRVKLGVDTIAKYLDNIHLHPEEEKYRKIKLQNKVFQERINCLEGTHEFFEAIGFQKVLLPAQDQEDPEEFYVLSETTLAQPQSLERHKEQLLAAE
notes: UBXD1 (ubiquitin regulatory X domain protein 1), PUB domain construct, residues 150-264; Cloned into pET28a (NdeI/HindIII); a few vector residues probably remain after thrombin cleavage (surmised); Theoretical MW 13.80 kDa; 15N- or 13C,15N-labelled for NMR; also called UBXD1-PUB wt; wild type (wt); source: E. coli Rosetta2, purified (Ni-NTA, thrombin cleavage of the tag, SEC); not shown: His6, …

No end group written: not given here.

Common to all, as to settings: both partners purified
Assay [1] concerns the target B2. The experiment in a line: ITC; UBXD1-PUB (100 µM) titrated with 1 mM p97-C10 peptide; 50 mM NaKPi pH 6.5, 25 °C; single-site model; triplicate, parameters averaged.
The next assay deals with T1, full-length p97 (UniProt P55072 1-806).
T1 construct: AAA+ ATPase p97 / valosin-containing protein (VCP) / Cdc48, full length; Cloning, tags and purification of p97-fl are not described; the methods say only that 'all proteins were expressed in Escherichia coli Rosetta2' and purified by Ni-NTA and SEC after thrombin cleavage; also called p97-fl; VCP
T1 sequence (P55072 whole entry): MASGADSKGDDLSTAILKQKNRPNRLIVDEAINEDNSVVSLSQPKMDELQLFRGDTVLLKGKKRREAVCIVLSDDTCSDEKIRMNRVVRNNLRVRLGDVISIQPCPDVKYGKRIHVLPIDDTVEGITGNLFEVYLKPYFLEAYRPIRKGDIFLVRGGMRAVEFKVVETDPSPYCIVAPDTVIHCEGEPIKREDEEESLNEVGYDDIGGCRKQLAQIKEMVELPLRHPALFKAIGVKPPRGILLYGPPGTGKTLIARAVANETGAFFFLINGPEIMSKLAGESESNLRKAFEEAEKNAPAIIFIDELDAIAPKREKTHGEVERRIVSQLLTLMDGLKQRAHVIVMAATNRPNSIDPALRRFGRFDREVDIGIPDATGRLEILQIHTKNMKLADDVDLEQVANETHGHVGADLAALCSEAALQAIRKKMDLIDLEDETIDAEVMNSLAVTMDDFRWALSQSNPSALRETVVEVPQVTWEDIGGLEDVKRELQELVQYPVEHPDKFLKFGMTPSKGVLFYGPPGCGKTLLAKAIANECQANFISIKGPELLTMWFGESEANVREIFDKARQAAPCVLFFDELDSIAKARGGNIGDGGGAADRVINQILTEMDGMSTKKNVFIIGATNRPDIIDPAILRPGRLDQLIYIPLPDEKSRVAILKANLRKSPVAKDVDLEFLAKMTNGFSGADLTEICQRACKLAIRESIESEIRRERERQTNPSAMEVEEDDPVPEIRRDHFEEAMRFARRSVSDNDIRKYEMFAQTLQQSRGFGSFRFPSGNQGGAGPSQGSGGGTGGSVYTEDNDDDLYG
Description: fluorescence polarisation; fluorescence anisotropy of UBXD1-PUB wt with full length p97; which partner was labeled and titrated is not told.

The target of assay [2] is T2, UBXD1-PUB (150–264) N201A (UniProt Q9BZV1 150-264, N201A).
T2 construct: UBXD1 PUB domain construct, residues 150-264, point mutant; source: E. coli Rosetta2, purified (Ni-NTA, thrombin cleavage of the tag, SEC); not shown: His6, N-terminal, cleaved
T2 sequence (looked up): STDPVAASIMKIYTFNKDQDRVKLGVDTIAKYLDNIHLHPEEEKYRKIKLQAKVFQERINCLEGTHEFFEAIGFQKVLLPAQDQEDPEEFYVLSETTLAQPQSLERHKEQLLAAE
The experiment in a line: fluorescence polarisation; fluorescence anisotropy; PUB constructs titrated to 100 nM 5,6-FAM labeled p97-C10 peptide; 50 mM NaKPi pH 6.5, 25 °C; triplicate; one-site quadratic fit.

Assay [3] deals with T3, UBXD1-PUB (150–264) Y181A (UniProt Q9BZV1 150-264, Y181A).
T3 construct: UBXD1 PUB domain construct, residues 150-264, point mutant; source: E. coli Rosetta2, purified (Ni-NTA, thrombin cleavage of the tag, SEC); not shown: His6, N-terminal, cleaved
T3 sequence (looked up): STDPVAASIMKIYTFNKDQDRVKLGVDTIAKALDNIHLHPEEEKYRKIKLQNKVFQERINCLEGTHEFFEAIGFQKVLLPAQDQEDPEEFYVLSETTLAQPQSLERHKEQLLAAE
The assay is described as above.

The target of assay [4] is T4, UBXD1-PUB (150–264) Y181F (UniProt Q9BZV1 150-264, Y181F).
T4 construct: UBXD1 PUB domain construct, residues 150-264, point mutant; source: E. coli Rosetta2, purified (Ni-NTA, thrombin cleavage of the tag, SEC); not shown: His6, N-terminal, cleaved
T4 sequence (looked up): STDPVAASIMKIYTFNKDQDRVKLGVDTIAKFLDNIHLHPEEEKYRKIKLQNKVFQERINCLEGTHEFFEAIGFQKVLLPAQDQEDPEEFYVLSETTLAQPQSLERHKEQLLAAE
Described as above.

Assay [5] addresses T5, UBXD1-PUB (150–264) K193E (UniProt Q9BZV1 150-264, K193E).
T5 construct: UBXD1 PUB domain construct, residues 150-264, point mutant; source: E. coli Rosetta2, purified (Ni-NTA, thrombin cleavage of the tag, SEC); not shown: His6, N-terminal, cleaved
T5 sequence (looked up): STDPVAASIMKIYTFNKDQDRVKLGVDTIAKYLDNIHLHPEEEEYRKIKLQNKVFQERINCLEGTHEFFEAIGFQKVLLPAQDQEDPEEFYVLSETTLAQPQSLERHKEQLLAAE
The assay is described as above.

The target of assay [6] is T6, UBXD1-PUB (150–264) N201D (UniProt Q9BZV1 150-264, N201D).
T6 construct: UBXD1 PUB domain construct, residues 150-264, point mutant; source: E. coli Rosetta2, purified (Ni-NTA, thrombin cleavage of the tag, SEC); not shown: His6, N-terminal, cleaved
T6 sequence (looked up): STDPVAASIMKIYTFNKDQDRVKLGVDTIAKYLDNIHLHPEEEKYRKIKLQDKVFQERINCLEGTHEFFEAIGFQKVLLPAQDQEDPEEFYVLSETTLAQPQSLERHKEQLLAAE
The assay is described as above.

Assay [7] deals with T7, UBXD1-PUB (150–264) Q200A (UniProt Q9BZV1 150-264, Q200A).
T7 construct: UBXD1 PUB domain construct, residues 150-264, point mutant; source: E. coli Rosetta2, purified (Ni-NTA, thrombin cleavage of the tag, SEC); not shown: His6, N-terminal, cleaved
T7 sequence (looked up): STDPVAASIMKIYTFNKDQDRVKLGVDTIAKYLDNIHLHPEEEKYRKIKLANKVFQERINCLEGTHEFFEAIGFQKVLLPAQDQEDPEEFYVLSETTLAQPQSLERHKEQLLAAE
The description is as above.

The target in assay [8] is T8, UBXD1-PUB (150–264) Y194A (UniProt Q9BZV1 150-264, Y194A).
T8 construct: UBXD1 PUB domain construct, residues 150-264, point mutant; source: E. coli Rosetta2, purified (Ni-NTA, thrombin cleavage of the tag, SEC); not shown: His6, N-terminal, cleaved
T8 sequence (looked up): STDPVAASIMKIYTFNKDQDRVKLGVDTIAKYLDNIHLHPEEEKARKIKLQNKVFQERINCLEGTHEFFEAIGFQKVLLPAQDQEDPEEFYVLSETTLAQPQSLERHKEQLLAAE
The description is as above.

Assay [9] has as its target T9, UBXD1-PUB (150–264) R207E (UniProt Q9BZV1 150-264, R207E).
T9 construct: UBXD1 PUB domain construct, residues 150-264, point mutant; source: E. coli Rosetta2, purified (Ni-NTA, thrombin cleavage of the tag, SEC); not shown: His6, N-terminal, cleaved
T9 sequence (looked up): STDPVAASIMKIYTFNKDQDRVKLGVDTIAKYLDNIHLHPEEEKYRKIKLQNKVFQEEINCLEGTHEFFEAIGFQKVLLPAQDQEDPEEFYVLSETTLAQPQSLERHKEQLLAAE
The assay is described as above.

In assay [10] the target is T10, UBXD1-PUB (150–264) V203A (UniProt Q9BZV1 150-264, V203A).
T10 construct: UBXD1 PUB domain construct, residues 150-264, point mutant; source: E. coli Rosetta2, purified (Ni-NTA, thrombin cleavage of the tag, SEC); not shown: His6, N-terminal, cleaved
T10 sequence (looked up): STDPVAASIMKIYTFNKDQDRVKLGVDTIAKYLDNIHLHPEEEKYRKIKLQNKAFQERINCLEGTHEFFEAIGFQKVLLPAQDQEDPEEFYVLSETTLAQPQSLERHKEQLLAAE
The description is as above.

The target of assay [11] is T11, UBXD1-PUB (150–264) N184A (UniProt Q9BZV1 150-264, N184A).
T11 construct: UBXD1 PUB domain construct, residues 150-264, point mutant; source: E. coli Rosetta2, purified (Ni-NTA, thrombin cleavage of the tag, SEC); not shown: His6, N-terminal, cleaved
T11 sequence (looked up): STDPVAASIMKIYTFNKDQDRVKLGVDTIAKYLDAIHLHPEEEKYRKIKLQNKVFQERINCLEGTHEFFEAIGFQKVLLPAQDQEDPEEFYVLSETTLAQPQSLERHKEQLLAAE
The assay is described as above.

Assay [12] addresses B2. Described as above.
Assay [13] has as its target T12, UBXD1-PUB (150–264) K198E (UniProt Q9BZV1 150-264, K198E).
T12 construct: UBXD1 PUB domain construct, residues 150-264, point mutant; source: E. coli Rosetta2, purified (Ni-NTA, thrombin cleavage of the tag, SEC); not shown: His6, N-terminal, cleaved
T12 sequence (looked up): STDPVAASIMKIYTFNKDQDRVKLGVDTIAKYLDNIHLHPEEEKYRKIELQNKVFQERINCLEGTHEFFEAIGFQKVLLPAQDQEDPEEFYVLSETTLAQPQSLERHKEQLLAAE
The assay is described as above.

Assay [14] has as its target T13, UBXD1-PUB (150–264) N184D (UniProt Q9BZV1 150-264, N184D).
T13 construct: UBXD1 PUB domain construct, residues 150-264, point mutant; source: E. coli Rosetta2, purified (Ni-NTA, thrombin cleavage of the tag, SEC); not shown: His6, N-terminal, cleaved
T13 sequence (looked up): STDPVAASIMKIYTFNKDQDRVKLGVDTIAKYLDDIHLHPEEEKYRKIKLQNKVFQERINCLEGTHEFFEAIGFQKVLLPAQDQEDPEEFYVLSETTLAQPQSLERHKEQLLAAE
The description is as above.

The target of assay [15] is T14, UBXD1-PUB (150–264) Y194F (UniProt Q9BZV1 150-264, Y194F).
T14 construct: UBXD1 PUB domain construct, residues 150-264, point mutant; source: E. coli Rosetta2, purified (Ni-NTA, thrombin cleavage of the tag, SEC); not shown: His6, N-terminal, cleaved
T14 sequence (looked up): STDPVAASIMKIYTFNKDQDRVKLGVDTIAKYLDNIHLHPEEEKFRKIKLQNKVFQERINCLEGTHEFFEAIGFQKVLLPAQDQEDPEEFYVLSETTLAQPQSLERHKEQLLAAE
Described as above.

In assay [16] the target is T15, UBXD1-PUB (150–264) E206R (UniProt Q9BZV1 150-264, E206R).
T15 construct: UBXD1 PUB domain construct, residues 150-264, point mutant; source: E. coli Rosetta2, purified (Ni-NTA, thrombin cleavage of the tag, SEC); not shown: His6, N-terminal, cleaved
T15 sequence (looked up): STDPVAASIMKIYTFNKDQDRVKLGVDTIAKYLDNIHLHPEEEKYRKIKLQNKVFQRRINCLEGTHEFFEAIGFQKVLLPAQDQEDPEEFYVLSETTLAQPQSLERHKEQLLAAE
The description is as above.

B1: p97-C10 peptide (unlabeled) (peptide)
peptide: TEDNDDDLYG
notes: also called p97-PIM; p97-C10 PIM peptide; source: synthetic peptide, bought: Caslo ApS (Denmark)
On to B1, for which, in the assay with UBXD1-PUB (150–264) [1], binding was put at a Kd of 15 ± 5 µM, the dH was -13.6 ± 2.02 kJ/mol and the “stoichiometry N” value came to 1.1 ± 0.2.
The molecule B2 showed a Kd with full-length p97 of 8.4 µM.

B3: 5,6-FAM-labeled p97-C10 peptide (peptide)
peptide: TEDNDDDLYG
modifications: also: 5,6-FAM label, position not given here
notes: source: synthetic peptide, bought: Caslo ApS (Denmark)
For the molecule B3, the Kd amounted to 64.1 µM in assay [2]; 111 µM in assay [3]; 28.4 µM in assay [4]; 17.7 µM in assay [5]; 280 µM in assay [6]; 8.3 µM in [7]. Also, the Kd in [8] came out at 53 µM; in [9] it was 88 µM; in assay [10], 25.3 µM; in [11], 28.7 µM; with UBXD1-PUB (150–264) [12], 13.8 µM; in [13] it was 49.3 µM. For the same molecule, the figures for the Kd in assay [14], in assay [15] and in [16] were 80 µM, 141 µM and 39.4 µM, respectively.
